Positions count from the first letter of the chain named.
B1: Cy.009, chimeric anti-CyRPA monoclonal antibody (chicken variable domains, human IgG1) (antibody, V domains shown)
VH: AVTLDESGGGLQTPGGALSLVCKASGFTFSDYAMGWVRQAPGKGLEYVAGIKSDGSFTLYGSTVKGRATISRDNGQSIVRLQLNNLRAEDTGTYYCAKSDDNGGHYSDFSGEIDAWGHGTEVIVSS
VL: RCALTQPSSVSANPGETVKITCSGSSYSYGWYQQKSPGSAPVTVIYYNDKRPSDIPSRFSGSKSGSTGTLTITGVQAEDEAVYFCGNSDSRNAAFGAGTTLTVL
B2: Cy.004, chimeric anti-CyRPA monoclonal antibody (chicken variable domains, human IgG1) (antibody, V domains shown)
VH: AVTLDESGGGLQTPGGALSLVCKASGFDFSSYAMGWVRQAPGKGLEYVAGIRNDGSFTLYTPAVKGRATISRDNGQSTVRLQLNNLRAEDTATYFCTKSADDGGHYSDFSGEIDAWGHGTEVIVSS
VL: B1 VL with S26T, S28N, F84Y, A93V
B3: Cy.007, chimeric anti-CyRPA monoclonal antibody (chicken variable domains, human IgG1) (antibody, V domains shown)
VH: AVTLDESGGGLQTPGGTLSLVCKGSGFTFSSYEMQWVRQAPGKGLEWVADICIGGSYTGYGPAVKGRATISRDDGQSTVRLQLNNLRAEDTGTYYCAKTARSDYCITGLDDIDAWGHGTEVIVSS
VL: RCALTQPSSVSANPGETVKITCSGGSSDYGWYQQKSPGSAPVTVIYENNKRPSDIPSRFSGSKFGSTHTLTITGVQADDEAVYFCGSRDTNNGAFGAGTTLTVL
B4: Cy.003, chimeric anti-CyRPA monoclonal antibody (chicken variable domains, human IgG1) (antibody, V domains shown)
VH: AVTLDESGGGLQTPGGALSLVCKGSGFFSFSSYTMQWVRQAPGKGLEWVASISSGGGTNYGAAVKGRATISRDNGQSTLRLQLNNLRAEDTGTYYCAKHGVNGCDWSYSVGCVDAWGHGTEVIVSS
VL: RCALTQPSSVSANPGETVKITCSGGSSSYYGWYQQKSPGSAPVTLIYNNQKRPSDIPSRFSGSKSGSTGTLTITGVQAEDEAVYFCGSRDNSGGIFGAGTTLTVL

Key:
[1] = molecular target: Cy.007 Fab:CyRPA complex, formed beforehand and purified by SEC (Plasmodium falciparum (3D7 clone) | …, UniProt Q8IFM8 29-362); test: SPR; PBS+P20
[2] = molecular target: Cy.003 Fab:CyRPA complex, formed beforehand and purified by SEC (Plasmodium falciparum (3D7 clone) | …, UniProt Q8IFM8 29-362); test: SPR; PBS+P20
[3] = molecular target: T1, Cy.002 Fab:CyRPA complex, formed beforehand and purified by SEC (Plasmodium falciparum (3D7 clone) | …, UniProt Q8IFM8 29-362); test: SPR; PBS+P20
[4] = molecular target: Cy.004 Fab:CyRPA complex, formed beforehand and purified by SEC (Plasmodium falciparum (3D7 clone) | …, UniProt Q8IFM8 29-362); test: SPR; TBS+P20, 1 mM CaCl2
[5] = molecular target: Cy.009 Fab:CyRPA complex, formed beforehand and purified by SEC (Plasmodium falciparum (3D7 clone) | …, UniProt Q8IFM8 29-362); test: SPR; TBS+P20, 1 mM CaCl2
[6] = molecular target: T1, Cy.002 Fab:CyRPA complex, formed …; test: SPR; TBS+P20, 1 mM CaCl2

| Binder | Kd [1] | Kd [2] | Kd [3] | koff [3] | Kd [4] | Kd [5] | Kd [6] | koff [6] |
| --- | --- | --- | --- | --- | --- | --- | --- | --- |
| B1 | 2100 nM | 260 nM | 1500 nM | 0.17 s⁻¹ |  |  |  |  |
| B2 | 390 nM | 410 nM | 1800 nM | 0.39 s⁻¹ |  |  |  |  |
| B3 |  |  |  |  | 1.6 nM | 2.6 nM | 11 nM | 0.0024 s⁻¹ |
| B4 |  |  |  |  | 13 nM | 8.6 nM | 77 nM | 0.0048 s⁻¹ |

From paper PMC8854392 (2022)
